Experimental data as given in publication doi:10.1101/2021.05.31.446396 (bioRxiv, 2021).

Target: the molecule itself
Test: SAXS

B1: EccCb1 enzyme, full length (Met1-Glu591), M. tuberculosis ESX-1 (enzyme)
chain: MTAEPEVRTLREVVLDQLGTAESRAYKMWLPPLTNPVPLNELIARDRRQPLRFALGIMDEPRRHLQDVWGVDVSGAGGNIGIGGAPQTGKSTLLQTMVMSAAATHSPRNVQFYCIDLGGGGLIYLENLPHVGGVANRSEPDKVNRVVAEMQAVMRQRETTFKEHRVGSIGMYRQLRDDPSQPVASDPYGDVFLIIDGWPGFVGEFPDLEGQVQDLAAQGLAFGVHVIISTPRWTELKSRVRDYLGTKIEFRLGDVNETQIDRITREIPANRPGRAVSMEKHHLMIGVPRFDGVHSADNLVEAITAGVTQIASQHTEQAPPVRVLPERIHLHELDPNPPGPESDYRTRWEIPIGLRETDLTPAHCHMHTNPHLLIFGAAKSGKTTIAHAIARAICARNSPQQVRFMLADYRSGLLDAVPDTHLLGAGAINRNSASLDEAVQALAVNLKKRLPPTDLTTAQLRSRSWWSGFDVVLLVDDWHMIVGAAGGMPPMAPLAPLLPAAADIGLHIIVTCQMSQAYKATMDKFVGAAFGSGAPTMFLSGEKQEFPSSEFKVKRRPPGQAFLVSPDGKEVIQAPYIEPPEEVFAAPPSAG
- stoichiometry N: 12
